Assay results published in the DeepSol protein solubility set.

assay: soluble on expression in E. coli; label from the status in PepcDB or PDB records

Q: For “MHVIDLSYFVKIYRSKNKHFSVNFLRHLHRAGDLHLSGTTRCIYEDVIMKKCLTLLIATVLSGISLTAYAAQPMSNLDSGQLRPAGTVSATGASNLSDLEDKLAEKAREQGAKGYVINSAGGNDQMLGTATIYKLEHHHHHH”, which “soluble on expression in E. coli” value is on record?
A: not soluble

Q: Which “soluble on expression in E. coli” value does the source give for “MHVSPFDWRYGSEEIRRLFTNEAIINAYLEVERALVCALEELGVAERGCCEKVNKASVSADEVYRLERETGHDILSLVLLLEQKSGCRYVHYGATSNDIIDTAWALLIRRALAAVKEKARAVGDQLASMARKYKTLEMVGRTHGQWAEPITLGFKFANYYYELYIACRQLALAEEFIRAKIGGAVGTMASWGELGLEVRRRVAERLGLPHHVITTQVAPRESFAVLASALALMAAVFERLAVEIRELSRPEIGEVVEGGGGSSAMPHKANPTASERIVSLARYVRALTHVAFENVALWHERDLTNSANERVWIPEALLALDEILTSALRVLKNVYIDEERITENLQKALPYILTEFHMNRMIKEGASRAEAYKKAKEVKALTFEYQKWPVERLIEDALSLKLC” here?
A: soluble

Q: For “MHWGVGFASSRPCVVDLSWNQSISFFGWWAGSEEPFSFYGDIIAFPLQDYGGIMAGLGSDPWWKKTLYLTGGALLAAAAYLLHELLVIRKQQEIDSKDAIILHQFARPNNGVPSLSPFCLKMETYLRMADLPYQNYFGGKLSAQGKMPWIEYNHEKVSGTEFIIDFLEEKLGVNLNKNLGPHERAISRAVTKMVEEHFYWTLAYCQWVDNLNETRKMLSLSGGGPFSNLLRWVVCHITKGIVKREMHGHGIGRFSEEEIYMLMEKDMRSLAGLLGDKKYIMGPKLSTLDATVFGHLAQAMWTLPGTRPERLIKGELINLAMYCERIRRKFWPEWHHDDDNTIYESEESSEGSKTHTPLLDFSFYSRTETFEDEGAENSFSRTPDTDFTGHSLFDSDVDMDDYTDHEQCK”, which “soluble on expression in E. coli” value is on record?
A: not soluble

Q: Which “soluble on expression in E. coli” value does the source give for “MIALGIEGTAWSLSIGVVDEEGVIALENDPYIPKEGGIHPREASQHHSERLPSLLSRVFEKVDKNSIDVVAFSQGPGMGPCLRVVATAARLLAIKLEKPLVGVNHCLAHVEVGRWQTGARKPVSLYVSGGNSQVIARRGNRYRVFGETLDIGIGNALDKLARHMGLKHPGGPKIEELAKKGQKYHFLPYVVKGMDFSFSGMVTAAQRLFDSGVRMEDVAFSFQETAFAMLTEVTERALAYLDLNEVLLVGGVAANKRLQEMLRIMCEDRGAKFYVPPKELAGDNGAMIAYTGLLMYKHGHQTPVEKSYVRPDFRIEDVEVNWD” here?
A: soluble

Q: Which “soluble on expression in E. coli” value does the source give for “MIARKRRARTIHSRYPIGIYGSIVMTDIAQLLGKDADNLLQHRCMTIPSDQLYLPGHDYVDRVMIDNNRPPAVLRNMQTLYNTGRLAGTGYLSILPVDQGVEHSAGASFAANPLYFDPKNIVELAIEAGCNCVASTYGVLASVSRRYAHRIPFLVKLNHNETLSYPNTYDQTLYASVEQAFNMGAVAVGATIYFGSEESRRQIEEISAAFERAHELGMVTVLWAYLRNSAFKKDGVDYHVSADLTGQANHLAATIGADIVKQKMAENNGGYKAINYGYTDDRVYSKLTSENPIDLVRYQLANCYMGRAGLINSGGAAGGETDLSDAVRTAVINKRAGGMGLILGRKAFKKSMADGVKLINAVQDVYLDSKITIA” here?
A: soluble

Q: Which “soluble on expression in E. coli” value does the source give for “MIASLDELYHSELFFLPVMDENARLVGLEIIATFAAEDGAVRMPTELVAPRLSVEEQYCLFVEKLALLETCQHFFIQHKLIAWLNLPPAISDLLLLDSELFSRAARFPFLELAINENYPGLNQGKNNETLANLAMHFPLMLANFGAGEASTKAIFDGLFKRVMLDKNFIQQRAEMISFEPFMHAIVAQISSSCESLMIAGIDTEAMFARAAPLGFSAFQGGLWPPVPVSQLIKLVQR” here?
A: not soluble

Q: With “MICNNQREFDNSLKCYQTALVTSQWTVRIRNLNWVLQEKVKSLYVEYQIWRGIDQTNKANPNTLRTNLDQVLAQLETFPTASASPIDSGSAGQLTPFHRSHFHPYKDNKRMRFPSNKEGGLCNSLLSSHYEWC” as the sequence, how does the “soluble on expression in E. coli” value read?
A: not soluble

Q: Which “soluble on expression in E. coli” value does the source give for “MIDHNIRTGKAFFGRRKGKRLRNSQLVLIKKLFPTLDINLNNSVPLNLTSLFSRKVKEVRLEIGFGGGEHLLHEMKHFPQTGFIGIEPFINGMAKMLMSLEEHKQYQNQLRLYNDDATGLLDWLPNASLDGIDLFYPDPWPKKKHWKRRFINMKNLNRFARVLKTGKKFRFASDIESYVNWTLYHCSNHHSFEWEAKNPKDWKTPYTLWSGTRYEAKALREGRAPTYLTFIKK” here?
A: not soluble

Q: Which “soluble on expression in E. coli” value does the source give for “MIDIQGIKEALPHRYPMLLVDRVLEVSEDTIVAIKNVTINEPFFNGHFPQYPVMPGVVIMEALAQTAGVLELSKPENKGKLVFYAGMDKVKFKKQVVPGDQLVMTATFVKRRGTIAVVEAKAEVDGKLAASGTLTFAIGN” here?
A: soluble

Q: With “MIDITLPLTDIHRHLDGNIRAQTILDLGRQFNIALPAQTLETLIPHVQVTSTEPDLVSFLTKLDWGVKVLASLDACRRVAFENIEDAARNGLHYVELRFSPGYMAMAHQLPIAGVVEAVIDGVRDGCNTFGVEARLIGIMSRTFGEAACLQELDALLAHRENITALDLAGDELGFPGSLFLSHFNRARDAGWHITVHAGEAAGPESIWQAIRELGAERIGHGVKAVEDRALMDFLAQQRIGIESCLTSNIQTSTVASLADHPLKTFLEHGVLASLNTDDPAVQGVDIIHEYHVAAPAAGLSREQIRQAQINGLEIAFLSDSEKRALREKVAEA” as the sequence, how does the “soluble on expression in E. coli” value read?
A: not soluble

Q: Which “soluble on expression in E. coli” value does the source give for “MIDMVVLTKEKIIEIIEEKTGMSREKIEEEIRRIMEEDPHLSEQGAAALLAERLGIDLIEREETSLMKISDLYPGMDPREVNIIGRVLKKYPVREYTKKDGSIGRVASLVIYDDSGRARVVLWDGKVAEYYNKIEVGDVIKVLDAQVRESLSGLPELHINFRARIILNPEDPRVDSIPPLEEVRIATYTRKKIGDIEPGDRFIEIRGTIAKVYRVLTYDACPECKKKVDYDPGTGVWICPEHGEVEPIKMTILDFGLDDGTGYIRVTLFGDDAEELLGVSSEEIAEKIKELENSGLTTKEAARKLAEEEFYKIIGKEIVVRGNVIEDRFLGLILRASSWEEVDYRKEIENIKEELEKLGVMLEHHHHHH” here?
A: not soluble

Q: Which “soluble on expression in E. coli” value does the source give for “MIDNPTPKSSMTFKELYDEWLLVYEKEVQNSTYYKTTRAFEKHVLPVIGSTKLSDFTPMELQNFRNDLSEKLKFARKLFGMVRKVFNHAALLSYIQANPALPVTSQGIKKKVEELEHHHHHH” here?
A: soluble

Q: For “MIDPVCGMKVDKNAKFKSTYNGKEYYFCSEHCKVEFDRNPIKYTR”, which “soluble on expression in E. coli” value is on record?
A: not soluble

Q: With “MIDTPDLETRAAPEDHHALRLWLRMLTCCNLIESEIRSRLRTEFDTTLPRFDLMAQLQRAPKGMKMGELSRHMMVTNGNITGITDQLEKEGLVVRTKVESDRRSSVLKLTPQGKRTFARMARAHESWVTGMLDDLPEASRHAMYKALGELKLQVVAHRALAQRDGAS” as the sequence, how does the “soluble on expression in E. coli” value read?
A: not soluble

Q: Which “soluble on expression in E. coli” value does the source give for “MIEIATSPATTTLVIAGDLDLAERDQFPEIAARVVGLRRQLLVIDMCRVTFMDSTGAAFLISLADSGRKRGGATVLRGCDDRDLFVLEVCGALELFRIDPDHACAPKTPATGVPAVEERPGRTR” here?
A: not soluble

Q: With “MIEISTSSTTTTLLVAGDLDLAEREQFPEVTARVVGLRRQLLVIDMCRVTFMDSTGAAFLISLADAGRRRGGATVLRGAADRDLFVLEICGALELFRIDADHHCELGAELPSAPEGAPAPA” as the sequence, how does the “soluble on expression in E. coli” value read?
A: not soluble

Q: With “MIESVLLLVSGLPGSGKSTLARGMAEALAWPCLDKDDFLEALFDARGIGDAAWRRALSREADSRFLAALQAAPRAVACSWWRHPRGEGGSGTPIGGLARPGRLVLELHCRCPAELAAARFARRVRHPGHLDAQRDPGALSLQLRRAERLGPLGLGQCLILDASVQTDLSGALAWTRDALAAGALADPPRHPLEHHHHHH” as the sequence, how does the “soluble on expression in E. coli” value read?
A: not soluble

Q: For “MIEWQDLHHSELSVSQLYALLQLRCAVFVVEQNCPYQDIDGDDLTGDNRHILGWKNDELVAYARILKSDDDLEPVVIGRVIVSEALRGEKVGQQLMSKTLETCTHHWPDKPVYLGAQAHLQNFYQSFGFIPVTEVYEEDGIPHIGMAREVIQA”, which “soluble on expression in E. coli” value is on record?
A: soluble

Q: For “MIFSDWPWRHWRQVRGETIALRLNDEQLNWRELCARVDELASGFAVQGVVEGSGVMLRAWNTPQTLLAWLALLQCGARVLPVNPQLPQPLLEELLPNLTLQFALVPDGENTFPALTSLHIQLVEGAHAATWQPTRLCSMTLTSGSTGLPKAAVHTYQAHLASAQGVLSLIPFGDHDDWLLSLPLFHVSGQGIMWRWLYAGARMTVRDKQPLEQMLAGCTHASLVPTQLWRLLVNRSSVSLKAVLLGGAAIPVELTEQAREQGIRCFCGYGLTEFASTVCAKEADGLADVGSPLPGREVKIVNNEVWLRAASMAEGYWRNGQLVSLVNDEGWYATRDRGEMHNGKLTIVGRLDNLFFSGGEGIQPEEVERVIAAHPAVLQVFIVPVADKEFGHRPVAVMEYDHESVDLSEWVKDKLARFQQPVRWLTLPPELKNGGIKISRQALKEWVQRQQ”, which “soluble on expression in E. coli” value is on record?
A: soluble

Q: Which “soluble on expression in E. coli” value does the source give for “MIFSKKDIQEVLPADVTGRSVAHPKRWLVALVRISHEKKTSERLSKMGIENFLPVQQEVHQWSDRRKVVERVLLPMMIFVHVDMYEQKEVLTLGSISRYMVLRGESTPAVIPDEQMHRFKFMLDYSDEAINMSTTPLSPGTKIKVIKGPLSGLQGELVTVNGKSKVAVRLTMLGCAFVDIPVGCVEPLEK” here?
A: not soluble

Q: With “MIGFAYLRLQKPSVYVIASQHFDGSIAAGLFESFGFKNIRGSSKKGGVKVLIEGLKRLKEGCDVAITPDGPKGPRHSIADGVIALAQKSGVGISACRVVCKNAWRLNTWDQFEIPKPFSEVYYYMLESVIIPKEWELSRAKEYLKTRMDSVGFEEPQRGLGALEHHHHHH” as the sequence, how does the “soluble on expression in E. coli” value read?
A: soluble

Q: For “MIGKEEIHRIRELIGAKEGPVLSLYVDVNPAKPENAGRAYALRAKDAIKALEVPGDLSERVLEVLQNQVLEARTAVFFAGEDLFEVLPLQVELPLVNSVKTAFLDEKAGRYLVDGVLAHWGEPFLLPLVYALDEYERYGIVYVDRERWRVFEVFLGEIEEVHDAFLALDTEAWRRLSLDAPGRRFNLGGIARGGAGQDLFAKRLEAWEERFYKALAHELERLSEARGFTRLVLMGPEEHTKLFLGHLPKRLRERVVAELPSLPHPGASPGEVLKRLEPVLEEVERREEVKLLERLEEAYPKAAFGPEVLARVQEGRVEVWVLPWHLEQEVYLCQDFAFADEAQALAYCESPEKKPLAAVLASLAVGYATKLEFVRGEAENRLLERGGMAALLRW”, which “soluble on expression in E. coli” value is on record?
A: soluble

Q: Which “soluble on expression in E. coli” value does the source give for “MIGKKILGERYVTVSEAAEIMYNRAQIGELSYEQGCALDYLQKFAKLDKEEAKKLVEELISLGIDEKTAVKIADILPEDLDDLRAIYYKRELPENAEEILEIVRKYI” here?
A: soluble

Q: For “MIGSTSDGLVPGNTDMPATPTTALTALRTPHPPTGGESMHPRTRTAPALLFAVCLTALAAYPAAADDPVPTTERVSVTLDGAQIDDPSYRPQLTSKGGVVYTSDGPVWSTDHNGVSDAYRNSERVSYNMGAARSYDPSACHTARMIAFVSDRTPAGGTTPSVYVRNTPVGKLSYASHGYQGVPFTWAGQPAMSADCQWMAFSATLPATPDHVEQPRVYRYRIYDGTIEQVSPDSADGSRAAVRPSISADGRYVAYQSSIPHPGGPANDSDIYVRDLETGTLEKASVGRHGRPADRASTGPSLSADGRHVAFDSYASNLAPGDTNGTVNVFVRDLDAGTTRLVKGAGRHAYTAEAALSGDGLHLAYVSAGIRGSRGVPAVYLRDLATGRTRLISVDTRGHRNDRAAGNPSVNPDGTAVAFDSASPDLVPGDTNGTVDVFLRRLGSPEALEHHHHHH”, which “soluble on expression in E. coli” value is on record?
A: soluble
